Laboratory results published in patent US20180296689A1.
pKd: −log10 of the molar value. Each block holds one substance with its values, some of them ahead of it.

Experiments:
[1] = biological target: CD74 (invariant chain, Ii), human, on tumor cell lines (human) (UniProt P04233); experiment: cell binding to antigen-positive cells (cell line not given)
[2] = biological target: CD74 (invariant chain, Ii), human, on tumor cell lines (human) (UniProt P04233); experiment: flow cytometry, surface only, Raji cells
[3] = biological target: CD74 (invariant chain, Ii), human, on tumor cell lines (human) (UniProt P04233); experiment: flow cytometry, surface only, A-375 cells
[4] = biological target: CD74 (invariant chain, Ii), human, on tumor cell lines (human) (UniProt P04233); experiment: flow cytometry, surface only, HuH-7 cells
[5] = biological target: CD74 (invariant chain, Ii), human, on tumor cell lines (human) (UniProt P04233); experiment: flow cytometry, surface only, Hep-G2 cells
[6] = biological target: CD74 (invariant chain, Ii), human, on tumor cell lines (human) (UniProt P04233); experiment: flow cytometry, surface only, Hs746T cells
[7] = biological target: CD74 (invariant chain, Ii), human, on tumor cell lines (human) (UniProt P04233); experiment: flow cytometry, surface only, Capan-1 cells
[8] = biological target: CD74 (invariant chain, Ii), human, on tumor cell lines (human) (UniProt P04233); experiment: flow cytometry, surface only, NCI-N87 cells
[9] = biological target: CD74 (invariant chain, Ii), human, on tumor cell lines (human) (UniProt P04233); experiment: flow cytometry, surface and cytoplasmic (permeabilized), Raji cells
[10] = biological target: CD74 (invariant chain, Ii), human, on tumor cell lines (human) (UniProt P04233); experiment: flow cytometry, surface and cytoplasmic (permeabilized), A-375 cells
[11] = biological target: CD74 (invariant chain, Ii), human, on tumor cell lines (human) (UniProt P04233); experiment: flow cytometry, surface and cytoplasmic (permeabilized), HuH-7 cells
[12] = biological target: CD74 (invariant chain, Ii), human, on tumor cell lines (human) (UniProt P04233); experiment: flow cytometry, surface and cytoplasmic (permeabilized), Hep-G2 cells
[13] = biological target: CD74 (invariant chain, Ii), human, on tumor cell lines (human) (UniProt P04233); experiment: flow cytometry, surface and cytoplasmic (permeabilized), Hs746T cells
[14] = biological target: CD74 (invariant chain, Ii), human, on tumor cell lines (human) (UniProt P04233); experiment: flow cytometry, surface and cytoplasmic (permeabilized), Capan-1 cells
[15] = biological target: CD74 (invariant chain, Ii), human, on tumor cell lines (human) (UniProt P04233); experiment: flow cytometry, surface and cytoplasmic (permeabilized), NCI-N87 cells
[16] = biological target: Human neonatal receptor (FcRn) (human) (UniProt P55899); experiment: SPR (BIACore), low density FcRn biosensor chip, three runs of five dilutions
[17] = biological target: TROP-2 (EGP-1), human, on tumor cell lines (human) (UniProt P09758); experiment: cell binding on TROP-2-positive PC-3 human prostate carcinoma cells, three separate occasions
Sequence of TROP-2 (EGP-1), human, on tumor cell lines (human) (P09758 27-323): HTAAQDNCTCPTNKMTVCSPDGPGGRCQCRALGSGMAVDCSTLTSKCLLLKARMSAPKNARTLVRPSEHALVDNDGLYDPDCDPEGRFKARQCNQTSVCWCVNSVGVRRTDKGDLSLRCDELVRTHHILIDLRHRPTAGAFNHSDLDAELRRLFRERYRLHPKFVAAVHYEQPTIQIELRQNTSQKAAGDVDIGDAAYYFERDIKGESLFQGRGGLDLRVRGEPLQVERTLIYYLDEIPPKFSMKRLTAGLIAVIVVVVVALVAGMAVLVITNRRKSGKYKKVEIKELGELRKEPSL

Sequence of CD74 (invariant chain, Ii), human, on tumor cell lines (human) (P04233 whole entry, change not shown): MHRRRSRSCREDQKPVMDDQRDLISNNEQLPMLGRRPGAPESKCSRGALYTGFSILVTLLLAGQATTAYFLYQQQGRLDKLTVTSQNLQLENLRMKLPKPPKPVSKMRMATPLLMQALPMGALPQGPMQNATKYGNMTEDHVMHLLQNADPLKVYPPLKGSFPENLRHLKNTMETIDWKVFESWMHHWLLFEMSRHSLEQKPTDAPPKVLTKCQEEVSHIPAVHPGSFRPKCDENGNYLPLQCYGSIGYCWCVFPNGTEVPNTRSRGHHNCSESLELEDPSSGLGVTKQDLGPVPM
Sequence of Human neonatal receptor (FcRn) (human) (P55899 24-297 limits assumed): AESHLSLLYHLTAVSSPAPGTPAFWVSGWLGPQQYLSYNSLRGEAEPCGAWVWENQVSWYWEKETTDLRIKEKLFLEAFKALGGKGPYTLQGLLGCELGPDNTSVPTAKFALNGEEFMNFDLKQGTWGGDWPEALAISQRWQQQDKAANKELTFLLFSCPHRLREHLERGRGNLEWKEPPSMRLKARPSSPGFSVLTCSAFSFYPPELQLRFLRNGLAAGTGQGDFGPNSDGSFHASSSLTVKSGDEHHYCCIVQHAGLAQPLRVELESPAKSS

pKd [1]: 9.10
Substance: milatuzumab-CL2E-SN-38 conjugate (antibody)

MFI [2]: 59 MFI
MFI Ratio hLL1:bkgd [2]: 19.6
MFI [3]: 16 MFI
MFI Ratio hLL1:bkgd [3]: 5.3
MFI [4]: 8 MFI
MFI Ratio hLL1:bkgd [4]: 1.6
MFI [5]: 9 MFI
MFI Ratio hLL1:bkgd [5]: 1.5
MFI [6]: 17 MFI
MFI Ratio hLL1:bkgd [6]: 2.1
MFI [7]: 22 MFI
MFI Ratio hLL1:bkgd [7]: 1.8
MFI [8]: 5 MFI
MFI Ratio hLL1:bkgd [8]: 1.3
pKd [1]: 9.11
MFI [9]: 143 MFI
MFI Ratio hLL1:bkgd [9]: 28.6
MFI [10]: 185 MFI
MFI Ratio hLL1:bkgd [10]: 30.8
MFI [11]: 114 MFI
MFI Ratio hLL1:bkgd [11]: 28.5
MFI [12]: 156 MFI
MFI Ratio hLL1:bkgd [12]: 31.2
MFI [13]: 144 MFI
MFI Ratio hLL1:bkgd [13]: 28.8
MFI [14]: 248 MFI
MFI Ratio hLL1:bkgd [14]: 49.6
MFI [15]: 220 MFI
MFI Ratio hLL1:bkgd [15]: 36.7
Substance: Milatuzumab (hLL1, humanized anti-CD74 IgG1 monoclonal antibody, unconjugated)

pKd [1]: 9.23
Substance: milatuzumab-CL2A-SN-38 conjugate (antibody)

pKd [16]: 7.03
pKd [17]: 9.18
Substance: IMMU-132 (hRS7-CL2A-SN-38 antibody-drug conjugate)
